Test results as given in the nanobody polyreactivity screen of Harvey et al. (2022).

Experiment: yeast display, Sf9 membrane polyspecificity reagent, FACS + sequencing; frameworks hold sequencing errors
In short: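 Genes from sorted yeast were amplified by colony PCR, read by MiSeq 2 × 250 sequencing and filtered on CDR length. These cells carried a synthetic nanobody library in Saccharomyces cerevisiae BJ5465 and were sorted by FACS into low and high (top ~1%) gates on anti-HA and streptavidin fluorescence. Polyreactivity is labelled according to the gate of origin.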

Sequence	polyreactivity (PSR sort gate)
QVQLVESGGGLVQAGGSLRLSCAASGFTFDDYAMGWYRQAPGKERELVAAIDDDSSTNYADSVKGRFTISRDNAKNTVYLQMNSLKPEDTAVYYCNARARVSGKWYNYWGQGTQVTVSS	high polyreactivity
QVQLVESGGGLVQAGGSLRLSCAASGFTFDFNAMGWSRQAPGKERELVAAISSGASTNYADSVKGRFTISRDNAKNTVYLQMNSLKPEDTAVYYCAARSRTPGWYSTISRKMYWGQGTQVTVSS	high polyreactivity
QVQLVESGGGLVQAGGSLRLSCAASGFTFDFYALGWYRQAPGKERELVAAISKNDGTTYYADSVKGRFTISRDNAKNTVYLQMNSLKPEDTAVYYCNAGNNVVVDYDYWGQGTQVTVSS	low polyreactivity
QVQLVESGGGLVQAGGSLRLSCAASGFTFDFYAMGWNRQAPGKERELVAVISSSGRTYYADSVKGRFTISRDNAKNSVYLQMNSMKPEDTAVYYCDAKDKRGHTYDYWGQGTQVTVSS	high polyreactivity
QVQLVESGGGLVQAGGSLRLSCAASGFTFDGYAIGWYRQAPGKERDLVAAISGAGGSTYYADSVKGRFTISRDNAKNTVYFQMNSLKPEDTAFYYCAAEWIADLSSPVWYDYWGQGTQVTVSS	high polyreactivity
QVQLVESGGGLVQAGGSLRLSCAASGFTFDGYAMGSYRQAPGKERELVAAISDSGDSTYYADSVKGRFTISRDNAKNTVYLQMNSLKPEDTAVYYCAAPSVGYYDPTDFDYWGQGTQVTVSS	low polyreactivity
QVQLVESGGGLVQAGGSLRLSCAASGFTFDGYAMGWYRQAPGKERELVAAIRRSGASTYYADSVKGRFTISRDNAKNTVYLHMNSLKPEDTAVYYCNATRNYEPRYSSFTLRGYYWGQGTQVTVSS	low polyreactivity
QVQLVESGGGLVQAGGSLRLSCAASGFTFDGYAMGWYRQAPVKERDLVAAISDSGDSTYYADSVKGRFTISRDNAKNTVYVQMNILKPEDTAVYYCNAEQWQSSEYGEWSKRDYWGQGTQVTVSS	low polyreactivity
QVQLVESGGGLVQAGGSLRLSCAASGFTFDHYAMGWCRQAPGKERELVAAITSSGGRTYYADSVKGRFTISRDNAKNTVYLQMNSLKPEDTAVYYCNARPVYYSGYGYWGQGTQVTVSS	high polyreactivity
QVQLVESGGGLVQAGGSLRLSCAASGFTFDKYAMGWYRQAPGKERELVAAISGSGGTTYYADSVKGRFTISRDNAKNTVYLQMNSLKPEDTAVYYCATRLYSIYSYGYWGQGTQVTVSS	high polyreactivity
QVQLVESGGGLVQAGGSLRLSCAASGFTFDLYAMGWSRQAPGKERELVASISSGGITYYADSVKGRFTITRDNANNTVYLQMNSLKPEDTAVYYCARDWRYGSWEGDDYWGQGTQVTVSS	low polyreactivity
QVQLVESGGGLVQAGGSLRLSCAASGFTFDLYAMGWYRQAPGKERELVAAISWSGGSTRYADSVKGRFTISRDNAKNTVYLQMNSLKPADSAVYYCARQPRLYFKGKLYGYWGQGTHVTVSS	high polyreactivity
QVQLVESGGGLVQAGGSLRLSCAASGFTFDNYVMGWYRQAPGKERELVAAISKSGTSTYYADSVKGRFTISRDNAKNTVYLQMNSLKPEDTAVYYCAAELPGYYYAYDYWGQGTQVTVSS	high polyreactivity
QVQLVESGGGLVQAGGSLRLSCAASGFTFDNYVMGWYSQAPGKERELVAAISKSGTSTYYADSVKGRFTISRDNAKNTVYLQMNSLKPEDTAVYYCAAALPGYGDYYYWGQGTQVTVSS	high polyreactivity
QVQLVESGGGLVQAGGSLRLSCAASGFTFDRYAMGWYRQAPGKERELVAAISWRGGSTYYADSVKGRFTISRDNAKNTDYLQMNSLKPEDTAVYYCNKGTRHTTAGTPRYDYWGQGTQVTVSS	high polyreactivity
QVQLVESGGGLVQAGGSLRLSCAASGFTFDSNAMGWYRQAPGKERELVAAISRRGGSTYYADSVKGRFTISRDNAKNTVYLQMNSLKPEDTAVYYCNKESWRIGRYQYDSWGQGTQVTVSS	high polyreactivity
QVQLVESGGGLVQAGGSLRLSCAASGFTFDSYAMGWYRQAPGKERELVAAITSSGGRTYYADSVKGRFTISRDNAKNTVYLQMNSLKPEDTSVYYCAARAISNFGYWGQGTQVTVSS	high polyreactivity
QVQLVESGGGLVQAGGSLRLSCAASGFTFDSYAMGWYRQAPGKERELVAAITSTGGSTYYADSVKGRFTISRDTAKNTVYLQMNSLKPEDTAVYYCAARGGYYKRGYWGQGTQVTVSS	high polyreactivity
QVQLVESGGGLVQAGGSLRLSCAASGFTFDSYDMGWSRQAPVKEREVVAAITWSGGSTYYADSVKGRFTISRDNAKNTVYLQMNSLKQEDTAVYYCNADTGTYWVPWYHDGYDYWGQGTQVTVSS	low polyreactivity
QVQLVESGGGLVQAGGSLRLSCAASGFTFDSYDMGWYRQAPGKERELVAAISKSGGTTYYADSLKGRFTISRDNANNTVYLQMNSLKPEDTAVFYCAAGGPRGGYGRYYYWGPGTQVTVSS	high polyreactivity
QVQLVESGGGLVQAGGSLRLSCAASGFTFDSYDMGWYRQAPGKERELVAAITWSGGSTYYADSVKGRFTISRDNAKNTVYLQMYSLKPEDTAVYYCKADTGTYWVPWYHDGYDYWGEGTQVTVSS	low polyreactivity
QVQLVESGGGLVQAGGSLRLSCAASGFTFDVNAMGWYRQAPGKERELVASITGSGSRTDYADSVKGRFTISRDNAKNTVYLQMNSLKPEDTAVYYCATDQRLGYQDDDYWGQGTQVTVSS	low polyreactivity

Sequence	polyreactivity (PSR sort gate)
QVQLVESGGGLVQAGGSLRLSCAASGFTFDVNAMGWYRQAPGKERELVATISSNGGSTYYADSVKGRFTISRDNAKNTVYLQMNSLKPEDTAVYYCAADVYRLLRRYRYYYWGQGTQVTVSS	low polyreactivity
QVQLVESGGGLVQAGGSLRLSCAASGFTFDVYALGWYRQAPGKERELVAAISARGGSTCYADSVKGRFTISRDNAKNTVYLQMHSLKPEDTAVYYCNTYPKKKRPNEYDYWGQGTQVTVSS	high polyreactivity
QVQLVESGGGLVQAGGSLRLSCAASGFTFDVYAMGWYRQAPGKERELVAAITGSDGSTYYADSVKGRFTISRDNAKNTVYLQMNSLKPEDTAVYYCNARSRSVVYKYDYWGQGTQVTVSS	low polyreactivity
QVQLVESGGGLVQAGGSLRLSCAASGFTFDYNAMGWYRQAPGKDRELVAVISSSGSRTYYADSVKGRFTISRDNAKNTVYLQMNSLKPEDTAVYYCNSGRTYRRLGDYWGQGTQVTVSS	high polyreactivity
QVQLVESGGGLVQAGGSLRLSCAASGFTFDYYAMGWYRPAPGKERELVAAISWRGTTTYYADSVKGRFTISRDNEKNTVYLQMNSLKPEDTAVYYCAADSLFGHYDYWGHGTQVTVSS	low polyreactivity
QVQLVESGGGLVQAGGSLRLSCAASGFTFDYYAMGWYRQAPGKERELVAAISVSGGITYYADSVKGRFTISRDNAKNTVYLQMNSLKPEDTAVYYCNAVFYYPYPADRRDYWGQGTQVTVSS	high polyreactivity
QVQLVESGGGLVQAGGSLRLSCAASGFTFDYYNMGWYRQAPGKERELVAAITSGASTNYADSVKGRFTISRDNAKNTVYLQMNSLKPEDTAVYYCAAVLAGGVYWVVHYDYWGQGTQVTVSS	low polyreactivity
QVQLVESGGGLVQAGGSLRLSCAASGFTFEDNTMGWYRQAPGKERELVAAITWGGVSTYYADSVKGRFTISRDNAKNTVYLQMNSLKPEDTAVYYCAAEEQVVKAHGDYWGQGTQVTVSS	low polyreactivity
QVQLVESGGGLVQAGGSLRLSCAASGFTFEENAMGWYRQAPGINYSGASTYYADSVKGRFTISRDKAKNTVYLQMNSLKPDDTAVYYCAADVVAQMNYWGQGTQVTVSS	low polyreactivity
QVQLVESGGGLVQAGGSLRLSCAASGFTFEGYAMGWYRQAPGKERELVAAISSNGGRTYYADSVKGRFTISRDNAKNTVYLQMNSLKPEDTAVYYCNARRAYSGPDYDYYHGRRYDYWGQGTQVTVSS	low polyreactivity
QVQLVESGGGLVQAGGSLRLSCAASGFTFERNAMGWYIQAPGKERELVATINGSSDSTYYADSVKGRFTISRDNAKNTVYLQMNSLKPEDTAVYYCNADSITEGNSRYSHFDYWGQGTQVTVSS	low polyreactivity
QVQLVESGGGLVQAGGSLRLSCAASGFTFESYAMGWYRQAPGKERELVAAISWNGGSTYYADSVKGRFTISRDNAKNTVYLQMNSLKPADTAVYYCAARGRAPRFRRIGYDYWGQGTQVTVSS	high polyreactivity
QVQLVESGGGLVQAGGSLRLSCAASGFTFEYYAMGWSRQAPGKETELVATITWNGGSTYYADSVKGRFTISRDNAKNTVYLQMNSLKPVDTAVYYCAADEQAYYVRRFDYWGQCTQVTVSS	low polyreactivity
QVQLVESGGGLVQAGGSLRLSCAASGFTFEYYAMGWYRQAPGKERELVAAIRSDSGTNYADSVKGRFTISRDNAKNTVYLQMNSLIPEDTAVYYCAAPTVVLIDYDYWGQGTQVTVSS	low polyreactivity
QVQLVESGGGLVQAGGSLRLSCAASGFTFFDNAMGWYRQAPGKERELVAAITWSDGSTYYADSVKGRFTISRDNAKNTVYLQMNSLKPEDTAVYYCAVGFISYSYSNYYDVWYEYYYWGQGTQVTVSS	low polyreactivity
QVQLVESGGGLVQAGGSLRLSCAASGFTFFFNAMGWYRQAPGKERELVASIRSDGDTNYADSVKGRFTISRDNAKNTVYLQMNSLKPEDTAVYYCAKVWYVFRYVSTEYDYWGQGTQVTVSS	high polyreactivity
QVQLVESGGGLVQAGGSLRLSCAASGFTFFFYAMGWYRQAPGKVRELVAGISQSGGNTNYADSVKGRFTISRDNAKNTVYLQMNSLKPEDTAVYYCAKTRYQYWRVTAFDYWGQGTQVTVSS	low polyreactivity
QVQLVESGGGLVQAGGSLRLSCAASGFTFFGYAMGWYRQAPGKERELVATISDTGGSTYADSVKGRFTISRDNAKNTVYLQMNSLKPEDTAVYYFNARSVFYSMDYWGQGTQVTVSS	low polyreactivity
QVQLVESGGGLVQAGGSLRLSCAASGFTFFIYVMGWYRQAPGKEREYVAAISSSGDSTYYADSVKGRFTISRDNAKNTVYLQMNSLIPEDTAVYYCNAGDKVSSYWYDYWGQGTQVTVSS	low polyreactivity
QVQLVESGGGLVQAGGSLRLSCAASGFTFFPYAMGWYRQAPGKEREFVAANFSDGSTYYADSVKGRFTISRDNAKNTVYLQINILKPEDTAVYYWAAAWYEQAYQTGYFEFDYWGLGTQVTVSS	low polyreactivity
QVQLVESGGGLVQAGGSLRLSCAASGFTFFSNAMGWYREAPGQERELVASITNDGSTYADSVKGRFTISRDNAKNTVYLQMNSLKPEDTAVYYCAARFPQWRYSRRTCERFDYWGQGTQVTVSS	low polyreactivity
